According to US7148329 (KATHOLIEKE UNIVERSITEIT NIJMEGEN, dated 2006):

T1: DC-Specific ICAM-3 Grabbing Non-integrin (DC-SIGN) (human, UniProt Q9NNX6 1-404)
T1 construct: Type II membrane protein of 404 aa, on monocyte-derived DC or on COS7 cells transfected with pRc/CMV-DC-SIGN; in immunoprecipitation and pull-down it came from DC lysate; also called C-type lectin on dendritic cells
T1 sequence: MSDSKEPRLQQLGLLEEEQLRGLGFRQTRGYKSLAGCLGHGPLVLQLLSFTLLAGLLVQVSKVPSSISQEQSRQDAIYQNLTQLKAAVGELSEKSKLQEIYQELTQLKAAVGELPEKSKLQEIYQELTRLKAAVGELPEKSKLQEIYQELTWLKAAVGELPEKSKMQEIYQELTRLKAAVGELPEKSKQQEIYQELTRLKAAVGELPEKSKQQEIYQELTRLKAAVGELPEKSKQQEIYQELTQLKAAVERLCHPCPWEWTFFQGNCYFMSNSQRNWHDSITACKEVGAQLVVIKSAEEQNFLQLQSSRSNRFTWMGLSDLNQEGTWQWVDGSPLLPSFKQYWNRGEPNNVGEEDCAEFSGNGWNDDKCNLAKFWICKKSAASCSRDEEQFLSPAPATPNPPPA

B1: ICAM-2 expressed on K562 cells (ligand, UniProt P13598 25-275, looked up)
chain: KVFEVHVRPKKLAVEPKGSLEVNCSTTCNQPEVGGLETSLDKILLDEQAQWKHYLVSNISHDTVLQCHFTCSGKQESMNSNVSVYQPPRQVILTLQPTLVAVGKSFTIECRVPTVEPLDSLTLFLFRGNETLHYETFGKAAPAPQEATATFNSTADREDGHRNFSCLAVLDLMSRGGNIFHKHSAPKMLEIYEPVSDSQMVIIVTVVSVLLSLFVTSVLLCFIFGQHLRQQRMGTYGVRAAWRRLPQAFRP
notes: whole, on cells

Tests used:
[1] = target: DC-Specific ICAM-3 Grabbing Non-integrin (DC-SIGN) (human) (UniProt Q9NNX6); assay: flow cytometry on COS7 cells transfected with DC-SIGN cDNA
[2] = target: DC-Specific ICAM-3 Grabbing Non-integrin (DC-SIGN) (human) (UniProt Q9NNX6); assay: cell-based or functional assay
[3] = target: DC-Specific ICAM-3 Grabbing Non-integrin (DC-SIGN) (human) (UniProt Q9NNX6); assay: flow cytometry on DC day 7; meaning of the grade from the table's footnote
[4] = target: T1, DC-Specific ICAM-3 Grabbing …; assay: binding to K562 transfectants (FIG. 8)

Row | Molecule | percent of transfected cells stained [1] [%] | DC-T cell clustering (percentage of DC which have bound fluorescent T cells) [2] [%] | HIV-1 replication (p24 Gag) in DC-T cell co-culture, DC pre-incubated with antibody before the HIV-1 pulse [2] [%] | T-lymphocyte proliferation induced by allogeneic DC ([3H]methyl-thymidine uptake) [2] [%] | mean fluorescence [3] | binding result [4]
1 | AZN-D1 (antibody) | 30 | 50 | > 75 | > 75 | > 400 | 
2 | AZN-D2 (antibody) |  | 50 | > 75 | > 75 |  | 
3 | B1 |  |  |  |  |  | binds
